Target: T1, bovine serum albumin cationized by reaction with ethylenediamine, net surface charge +78e (BSA +78e) (bovine, UniProt P02769 25-607, reacted with ethylenediamine; net surface charge +78e (±3e))
T1 construct: bovine serum albumin (BSA), 66 kDa protein; Chemically surface-modified; DLS radius is 16 nm, from which the authors infer oligomers; also called positive BSA (+78e); cationized BSA; source: BSA modified by reaction with ethylenediamine (published procedure); chemicals bought: Sigma‐Aldrich unless mentioned otherwise
Assay: MST; NanoTemper Monolith; about 10 μM mHttex1‐VC (target, mCherry fluorescence read) with different concentrations of BSA (ligand); within 1 h after cleaving MBP; apparent
Settings: both partners purified

B1: mutant huntingtin exon 1 (45Q) fused to mVenus/mCherry (mHttex1‐VC), after cleavage of MBP (domain or fragment)
chain: MATLEKLMKAFESLKSFQQQQQQQQQQQQQQQQQQQQQQQQQQQQQQQQQQQQQQQQQQQQQPPPPPPPPPPPQLPQPPPQAQPLLPQPQPPPPPPPPPPGPAVAEEPLHRP
- Kd: > 1 mM
